According to US20230159601A1 (SEOUL NATIONAL UNIVERSITY HOSPITAL, published 2023):

Target: T1, recombinant human proprotein convertase subtilisin/kexin type-9 (rhPCSK9) (human, UniProt Q8NBP7 31-692, limits assumed)
T1 construct: Elsewhere it is called His-rhPCSK9; also called recombinant hPCSK9; recombinant human PCSK9
Experiment: surface plasmon resonance, direct binding analysis between rhPCSK9 and CAP1 (FIG. 1E)

T1 sequence (Q8NBP7 31-692 limits assumed): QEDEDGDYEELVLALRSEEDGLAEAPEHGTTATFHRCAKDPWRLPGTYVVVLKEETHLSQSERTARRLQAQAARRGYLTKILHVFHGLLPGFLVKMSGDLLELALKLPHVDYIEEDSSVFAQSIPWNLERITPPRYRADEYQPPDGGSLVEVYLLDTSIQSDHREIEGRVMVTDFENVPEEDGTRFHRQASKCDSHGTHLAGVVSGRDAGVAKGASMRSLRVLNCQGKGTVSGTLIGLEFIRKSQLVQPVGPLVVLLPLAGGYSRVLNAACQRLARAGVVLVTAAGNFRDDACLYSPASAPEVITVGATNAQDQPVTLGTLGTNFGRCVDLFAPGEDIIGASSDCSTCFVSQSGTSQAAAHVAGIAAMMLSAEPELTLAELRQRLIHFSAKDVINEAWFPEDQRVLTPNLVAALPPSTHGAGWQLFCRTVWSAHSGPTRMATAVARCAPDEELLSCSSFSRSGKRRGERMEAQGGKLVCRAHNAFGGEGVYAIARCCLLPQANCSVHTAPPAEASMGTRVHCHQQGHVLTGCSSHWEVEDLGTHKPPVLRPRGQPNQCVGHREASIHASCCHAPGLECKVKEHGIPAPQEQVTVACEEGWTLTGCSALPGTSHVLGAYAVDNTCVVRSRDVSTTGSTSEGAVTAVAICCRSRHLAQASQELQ

Kd: 1010 nM
B1: human adenylyl cyclase-associated protein 1 (CAP1), wild type (other)
chain: MADMQNLVERLERAVGRLEAVSHTSDMHRGYADSPSKAGAAPYVQAFDSLLAGPVAEYLKISKEIGGDVQKHAEMVHTGLKLERALLVTASQCQQPAENKLSDLLAPISEQIKEVITFREKNRGSKLFNHLSAVSESIQALGWVAMAPKPGPYVKEMNDAAMFYTNRVLKEYKDVDKKHVDWVKAYLSIWTELQAYIKEFHTTGLAWSKTGPVAKELSGLPSGPSAGSGPPPPPPGPPPPPVSTSSGSDESASRSALFAQINQGESITHALKHVSDDMKTHKNPALKAQSGPVRSGPKPFSAPKPQTSPSPKRATKKEPAVLELEGKKWRVENQENVSNLVIEDTELKQVAYIYKCVNTTLQIKGKINSITVDNCKKLGLVFDDVVGIVEIINSKDVKVQVMGKVPTISINKTDGCHAYLSKNSLDCEIVSAKSSEMNVLIPTEGGDFNEFPVPEQFKTLWNGQKLVTTVTEIAG
notes: also called hCAP1; wtCAP1
